Measured values reported in patent US20250382355A1 (Merck Sharp & Dohme, published 2025).

How the values were obtained:
[1] = target: T1, SARS-CoV-2 prefusion-stabilized spike protein (SARS-CoV-2-PreS) (SARS-CoV-2, UniProt P0DTC2 14-1208); test: ELISA
[2] = target: SARS-CoV-2 Omicron spike on pseudovirus (SARS-CoV-2); test: cell-based or functional assay
[3] = target: T1, SARS-CoV-2 prefusion-stabilized spike …; test: Biacore, apparent affinity
[4] = target: T2, Biotinylated CoV2 Spike ECD PreS-AVI protein (SARS-CoV-2, UniProt P0DTC2 14-1208); test: Octet binning; competitor 19B8
[5] = target: T2, Biotinylated CoV2 Spike ECD PreS-AVI …; test: Octet binning; competitor 20D11

B1: 19B8 VHH-Fc (Fc fusion)
chain: QVQLVESGGGLVQAGGSLRLSCAASGRTFTNYAMGWFRQAPGKEREFVAAISWSGGGTNYADSVKGRFTISRDNAKNTVYLQMNSPKPEDTAVYYCATTLGYYGSSSRLYEYWGQGTQVTVSS
[1]
  EC50: 0.06 nM
[2]
  pseudovirus neutralization IC50: 47 nM
[3]
  Kd: 1.1 nM
[4]
  binning response: 0.08
[5]
  binning response: 0.48
